The record followed here is IntAct's records for PubMed 23954414.

The chains are these.
B1: Beclin-2 (Homo sapiens), A8MW95 (parent)
chain: MSSIRFLCQRCHQALKLSGSSESRSLPAAPAPTSGQAEPGDTREPGVTTREVTDAEEQQDGASSRSPPGDGSVSKGHANIFTLLGELGAMHMLSSIQKAAGDIFDIVSGQAVVDHPLCEECTDSLLEQLDIQLALTEADSQNYQRCLETGELATSEDEAAALRAELRDLELEEARLVQELEDVDRNNARAAADLQAAQAEAAELDQQERQHYRDYSALKRQQLELLDQLGNVENQLQYARVQRDRLKEINCFTATFEIWVEGPLGVINNFRLGRLPTVRVGWNEINTAWGQAALLLLTLANTIGLQFQRYRLIPCGNHSYLKSLTDDRTELPLFCYGGQDVFLNNKYDRAMVAFLDCMQQFKEEAEKGELGLSLPYGIQVETGLMEDVGGRGECYSIRTHLNTQELWTKALKFMLINFKWSLIWVASRYQK
partner: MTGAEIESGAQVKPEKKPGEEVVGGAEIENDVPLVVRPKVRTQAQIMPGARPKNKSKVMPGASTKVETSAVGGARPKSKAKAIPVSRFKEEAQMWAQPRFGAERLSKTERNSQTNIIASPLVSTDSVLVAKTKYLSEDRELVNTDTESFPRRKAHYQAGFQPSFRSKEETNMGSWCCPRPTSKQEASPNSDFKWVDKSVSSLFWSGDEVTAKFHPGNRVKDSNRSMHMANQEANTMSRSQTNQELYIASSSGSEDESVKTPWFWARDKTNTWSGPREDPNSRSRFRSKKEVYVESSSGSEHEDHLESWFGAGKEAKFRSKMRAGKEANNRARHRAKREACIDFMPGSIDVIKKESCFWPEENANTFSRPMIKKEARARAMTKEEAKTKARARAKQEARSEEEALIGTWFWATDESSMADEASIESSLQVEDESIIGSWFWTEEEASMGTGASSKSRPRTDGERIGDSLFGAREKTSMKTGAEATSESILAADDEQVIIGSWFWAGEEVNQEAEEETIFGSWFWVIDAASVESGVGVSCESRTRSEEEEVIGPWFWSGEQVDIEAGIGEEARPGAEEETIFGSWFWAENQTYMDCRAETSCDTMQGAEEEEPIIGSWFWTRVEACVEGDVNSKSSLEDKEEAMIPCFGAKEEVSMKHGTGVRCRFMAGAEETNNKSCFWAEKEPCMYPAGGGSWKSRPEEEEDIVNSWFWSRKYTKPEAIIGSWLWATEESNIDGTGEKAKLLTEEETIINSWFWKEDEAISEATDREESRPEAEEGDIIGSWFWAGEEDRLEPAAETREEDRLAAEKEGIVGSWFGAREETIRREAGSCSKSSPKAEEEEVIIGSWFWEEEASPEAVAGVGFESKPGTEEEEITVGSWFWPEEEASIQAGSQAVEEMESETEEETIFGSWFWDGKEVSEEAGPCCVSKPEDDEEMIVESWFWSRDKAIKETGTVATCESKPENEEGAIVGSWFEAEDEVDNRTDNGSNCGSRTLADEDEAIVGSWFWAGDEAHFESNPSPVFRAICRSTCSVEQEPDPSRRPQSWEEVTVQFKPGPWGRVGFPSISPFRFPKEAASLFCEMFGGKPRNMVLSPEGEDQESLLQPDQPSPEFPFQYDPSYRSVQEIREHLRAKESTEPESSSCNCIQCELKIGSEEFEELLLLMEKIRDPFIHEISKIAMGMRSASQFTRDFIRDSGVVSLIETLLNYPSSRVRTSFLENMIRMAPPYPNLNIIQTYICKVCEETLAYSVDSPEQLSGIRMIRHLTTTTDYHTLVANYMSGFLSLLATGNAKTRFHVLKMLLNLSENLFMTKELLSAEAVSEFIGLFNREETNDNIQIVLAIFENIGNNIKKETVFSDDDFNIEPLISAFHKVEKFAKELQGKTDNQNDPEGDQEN

This experiment covers variants of B1. As to conditions: with gasp1_human GPRASP1, Q5JY77.
For the variant MSSIRFLCQRCHQALKLSGSSESRSLPAAPAPTSGQAEPGDTREPGVTTREVTDAEEQQDGASSRSPPGDGSVSKGHANSFTLLGELGAMHMLSSIQKAAGDIFDIVSGQAVVDHPLCEECTDSLLEQLDIQLALTEADSQNYQRCLETGELATSEDEAAALRAELRDLELEEARLVQELEDVDRNNARAAADLQAAQAEAAELDQQERQHYRDYSALKRQQLELLDQLGNVENQLQYARVQRDRLKEINCFTATFEIWVEGPLGVINNFRLGRLPTVRVGWNEINTAWGQAALLLLTLANTIGLQFQRYRLIPCGNHSYLKSLTDDRTELPLFCYGGQDVFLNNKYDRAMVAFLDCMQQFKEEAEKGELGLSLPYGIQVETGLMEDVGGRGECYSIRTHLNTQELWTKALKFMLINFKWSLIWVASRYQK [I80S], the “effect of a mutation on the interaction” value is “disrupting interaction strength”.
